The record followed here is patent US20020151006A1 (ROCKEFELLER UNIVERSITY, published 2002).

A word on the Kd: it is the concentration at which binding is half-saturated.

In assay [1] the target is consolidated ligand NH2-PVpYENVG6>(…ONH2). Put plainly: fluorescence-based titration assay in solution.
Assay [2] addresses T1, E. coli RNA polymerase sigma-70 subunit, full-length recombinant (sigma is printed as a garbled character: … (E. coli, UniProt P00579 1-613)).
T1 construct: range 1-613; also called full-length ?^70; recombinant ?^70
The assay is described as follows: Ni2+-NTA agarose co-immobilization, SDS-PAGE.
Procedure: (§1) The indicated proteins were loaded onto Ni²⁺-NTA-agarose beads (L) and the unbound protein was removed (F). The beads were extensively washed and the bound protein was eluted with buffer containing 100 mM imidazole (E).
(§2) A mixture of AsiAHis and recombinant σ⁷⁰ was loaded onto Ni²⁺-NTA agarose beads (lane 4) and the unbound material removed (lane 5). The beads were subsequently washed with 10 mM imidazole buffer and then eluted with 100 mM imidazole buffer.

Assay [3] has as its target T2, cleavage product containing the first 567 amino acids of sigma-70 (E. coli, UniProt P00579 1-567).
T2 construct: range 1-567; also called ?^70 fragment
Put plainly: Ni2+-NTA agarose co-immobilization, SDS-PAGE.
Procedure: as §1, §2

Assay [4] deals with T3, semisynthetic 600 amino acid-long sigma-70 derivative (ligation product of sigma-70 1-567 with the synthetic … (E. coli, UniProt P00579 1-567; P00579 568-600).
T3 construct: range 1-567;range 568-600; also called semisynthetic ?^70
The assay is described as follows: Ni2+-NTA agarose co-immobilization, SDS-PAGE.
Procedure: as §1, §2

Turning to “Abl-[G^120C^121][SH2-^15N]SH(32), the ligation product of the Abl-SH3 and Abl-SH2 domains (from UniProt P00519 65-220)”, the dissociation constant (Kd) in assay [1] was 300 nM.

B1: bacteriophage T4 antisigma protein AsiA with a C-terminal hexahistidine tag (other)
chain: MNKNIDTVREIITVASILIKFSREDIVENRANFIAFLNEIGVTHEGRKLNQNSFRKIVSELTQEDKKTLIDEFNEGFEGVYRYLEMYTNKHHHHHH
notes: also called AsiAHis; AsiAHIS
Regarding B1, the binding result in assay [2] was “binds”; in assay [3], “no binding”; in assay [4] it was “binds”.
